B1: Beta-adrenergic receptor kinase 1 (Homo sapiens), P25098 (parent)
chain: MADLEAVLADVSYLMAMEKSKATPAARASKKILLPEPSIRSVMQKYLEDRGEVTFEKIFSQKLGYLLFRDFCLNHLEEARPLVEFYEEIKKYEKLETEEERVARSREIFDSYIMKELLACSHPFSKSATEHVQGHLGKKQVPPDLFQPYIEEICQNLRGDVFQKFIESDKFTRFCQWKNVELNIHLTMNDFSVHRIIGRGGFGEVYGCRKADTGKMYAMKCLDKKRIKMKQGETLALNERIMLSLVSTGDCPFIVCMSYAFHTPDKLSFILDLMNGGDLHYHLSQHGVFSEADMRFYAAEIILGLEHMHNRFVVYRDLKPANILLDEHGHVRISDLGLACDFSKKKPHASVGTHGYMAPEVLQKGVAYDSSADWFSLGCMLFKLLRGHSPFRQHKTKDKHEIDRMTLTMAVELPDSFSPELRSLLEGLLQRDVNRRLGCLGRGAQEVKESPFFRSLDWQMVFLQKYPPPLIPPRGEVNAADAFDIGSFDEEDTKGIKLLDSDQELYRNFPLTISERWQQEVAETVFDTINAETDRLEARKKAKNKQLGHEEDYALGKDCIMHGYMSKMGNPFLTQWQRRYFYLFPNRLEWRGEGEAPQSLLTMEEIQSVEETQIKERKCLLLKIRGGKQFILQCDSDPELVQWKKELRDAYREAQQLVQRVPKMKNKPRSPVVELSKVPLVQRGSANGL
partner: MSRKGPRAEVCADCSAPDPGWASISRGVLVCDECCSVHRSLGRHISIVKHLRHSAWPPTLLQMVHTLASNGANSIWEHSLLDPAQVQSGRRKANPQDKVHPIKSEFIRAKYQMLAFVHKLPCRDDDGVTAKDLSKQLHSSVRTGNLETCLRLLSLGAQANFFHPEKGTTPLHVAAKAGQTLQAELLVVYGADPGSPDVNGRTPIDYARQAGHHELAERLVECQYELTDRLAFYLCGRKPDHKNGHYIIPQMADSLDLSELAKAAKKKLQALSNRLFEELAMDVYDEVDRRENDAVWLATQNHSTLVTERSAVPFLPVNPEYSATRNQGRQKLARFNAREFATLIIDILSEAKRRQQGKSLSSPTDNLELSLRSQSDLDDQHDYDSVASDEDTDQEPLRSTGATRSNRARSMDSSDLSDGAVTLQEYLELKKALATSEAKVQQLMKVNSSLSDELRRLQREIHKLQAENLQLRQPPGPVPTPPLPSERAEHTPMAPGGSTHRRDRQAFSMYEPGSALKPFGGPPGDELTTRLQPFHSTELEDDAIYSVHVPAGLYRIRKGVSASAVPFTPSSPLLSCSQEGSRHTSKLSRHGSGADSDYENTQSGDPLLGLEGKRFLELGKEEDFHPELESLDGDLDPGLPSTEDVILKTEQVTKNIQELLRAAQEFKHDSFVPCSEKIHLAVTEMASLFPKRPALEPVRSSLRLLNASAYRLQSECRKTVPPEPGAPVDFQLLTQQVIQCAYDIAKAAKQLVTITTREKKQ

Variants of: B1
Settings: with git1_human GIT1, Q9Y2X7

effect of a mutation on the interaction	Variant
disrupting interaction	Y13F;Y86F;Y92F

Variants of: B1
Settings: with git1_human GIT1, Q9Y2X7
Remark: another data set of the same source

effect of a mutation on the interaction	Variant
increasing interaction	Y86D;Y92D

Variants of: B1
Settings: with git1_human GIT1, Q9Y2X7
Remark: another data set of the same source

effect of a mutation on the interaction	Variant
increasing interaction	S670A

Variants of: B1
Settings: with git1_human GIT1, Q9Y2X7
Remark: another data set of the same source

effect of a mutation on the interaction	Variant
disrupting interaction	S670D

Source: IntAct's records for PubMed 18369319
